Data on six molecules can be found in patent US7109015B2, “Removal of N-terminal methionine from proteins by engineered methionine aminopeptidase” (Academia Sinica, priority 2004, dated 2006).

The conditions of data set [1]: E. coli MetAP mutations; Chiu et al. 1999; cited from earlier work.
The target in data set [2] is Met-tagged onconase with different penultimate residue (Escherichia coli, UniProt P0AE18). The following applies: adapted from Hirel et al., 1989, cited from earlier work.
Data set [3] concerns Met-tagged onconase. Put plainly: In vivo catalytic activity of MetAPs co-expressed with Met-tagged onconase in E. coli BL21(DE3); N-terminus by Edman degradation. It counts as cell-based. Particulars: in vivo in E. coli. An excerpt:
Residues Tyr168, Met206 and Gln233 in the putative substrate-binding site of E. coli MetAP were mutated by site-directed mutagenesis based on the crystal structure and amino acid sequence alignment of MetAPs (Ben-Bassat et al., 1987; Lowther et al., 1999; Walker et al., 1999). For the expression of secretory ribonucleases, the ribonuclease gene was cloned and expressed as described previously (Huang et al., 1998).
Most of the co-expressed target protein, e.g., onconase or RC-RNase L1, existed in insoluble cell lysate. They were denatured, renatured and purified as described previously (Liao et al., 2003). The purified ribonucleases were stored in 20 mM sodium phosphate, pH 7.0, for pyroglutamate formation at the N-terminus. Alternatively, the ribonuclease secreted into culture medium through pe1B system was concentrated and purified to electrophoretical homogeneity at a yield of 1˜5 mg per 1 liter of culture (Huang et al., 1998).

Data set [4] concerns RC-RNase4. Put plainly: In vivo Met removal, co-expression in E. coli, RC-RNase 4 substrate. It counts as cell-based, Rana catesbeiana. Particulars: substrate MAAWA (SEQ ID NO:15)-RC4; solubility −.
Method: The MetAP was expressed alone or co-expressed with a target protein, i.e., onconase and RC-RNaseL1, in E. coli BL21 (DE3) in the presence of 0.5 mM IPTG at 37° C.
Proteins in the cell pellet or in the soluble fraction were separated by 13.3% SDS-PAGE and contact-transferred to ProBlott™ membrane (Applied Bioystems) in transfer buffer (10 mM Tris-HCl, pH 7.5, 50 mM NaCl, 2 mM EDTA, 0.5 mM 2-mercaptoethanol) overnight. The five N-terminal residues of the transferred protein were determined by Edman degradation. The percentage of Met removal was calculated by dividing the amount of proteins initiated with the penultimate residue with the amount of total proteins (including proteins initiated with the penultimate residue and unprocessed protein initiated with Met) after the first degradation cycle. In theory, this percentage should remain the same after each degradation cycle. Therefore, in order to avoid experimental variation, the same calculation was made from five consecutive degradation cycles, e.g., M, Q, N, W and L for onconase. The efficiency of Met removal is reported as the mean values of at least three cycles.
The subject of data set [5] is synthetic oligopeptides. The format is biochemical. The following applies: for Specific activity (unit/mg): 4 mM oligopeptide, pH 7.5, 37° C. How it is done:
The oligopeptide substrates used in this experiment were synthesized on the 432A Synergy peptide synthesizer (Applied Biosystems, Foster, Calif., USA). The enzymatic activity of purified MetAP was assayed as described by Ben-Bassat et al., 1987. Briefly, the diluted MetAP enzyme in 10 μl was added to 90 μl of the substrate solution containing 4 mM oligopeptide, 0.1 M potassium phosphate buffer, pH 7.5 and 0.2 mM CoCl2, incubated at 37° C. for 10 min and stopped in boiling water for 2 min. After addition of 0.9 ml of color development mixture containing 0.2 mg of L-amino acid oxidase, 0.03 mg of horseradish peroxidase and 0.2 mg of o-dianisidine in 0.1 M Tris-HCl, pH 7.4, the mixtures were incubated for 10 min at 37° C., and the optical density at 440 nm was recorded. One unit of activity is defined as 1 μmol of amino acids produced per min under the assay conditions and the pure Met was used as standard. The N-terminal residues of the MetAP-treated oligopeptide were further verified by Edman degradation.

[6] abbreviates: substrate MAA-Onc, listed as wild type E. coli MetAP.

Where two headings read alike, the source gives them in different places. Marks after values point to notes of the source that are not given here.

B1: C59S: E. coli MetAP mutation in the putative substrate-binding pocket (protein, UniProt P0AE18 2-264, looked up, variant C59S)
Methionine aminopeptidase: AISIKTPEDIEKMRVAGRLAAEVLEMIEPYVKPGVSTGELDRICNDYIVNEQHAVSASLGYHGYPKSVCISINEVVCHGIPDDAKLLKDGDIVNIDVTVIKDGFHGDTSKMFIVGKPTIMGERLCRITQESLYLALRMVKPGINLREIGAAIQKFVEAEGFSVVREYCGHGIGRGFHEEPQVLHYDSRETNVVLKPGMTFTIEPMVNAGKKEIRTMKDGWTVKTKDRSLSAQYEHTIVVTDNGCEILTLRKDDTIPAIISHDE
With B1, the “Catalytic activity, % activity of the wild type” value (“Catalytic activity, % activity” below) in data set [1] is “do not reduce catalytic activity”.

B2: Y62F: E. coli MetAP mutation in the putative substrate-binding pocket (protein, UniProt P0AE18 2-264, looked up, variant Y62F)
Methionine aminopeptidase: AISIKTPEDIEKMRVAGRLAAEVLEMIEPYVKPGVSTGELDRICNDYIVNEQHAVSACLGFHGYPKSVCISINEVVCHGIPDDAKLLKDGDIVNIDVTVIKDGFHGDTSKMFIVGKPTIMGERLCRITQESLYLALRMVKPGINLREIGAAIQKFVEAEGFSVVREYCGHGIGRGFHEEPQVLHYDSRETNVVLKPGMTFTIEPMVNAGKKEIRTMKDGWTVKTKDRSLSAQYEHTIVVTDNGCEILTLRKDDTIPAIISHDE
Turning to B2, in data set [1], the “Catalytic activity, % activity” value is given as “do not reduce catalytic activity”.

B3: Y65F: E. coli MetAP mutation in the putative substrate-binding pocket (protein, UniProt P0AE18 2-264, looked up, variant Y65F)
Methionine aminopeptidase: AISIKTPEDIEKMRVAGRLAAEVLEMIEPYVKPGVSTGELDRICNDYIVNEQHAVSACLGYHGFPKSVCISINEVVCHGIPDDAKLLKDGDIVNIDVTVIKDGFHGDTSKMFIVGKPTIMGERLCRITQESLYLALRMVKPGINLREIGAAIQKFVEAEGFSVVREYCGHGIGRGFHEEPQVLHYDSRETNVVLKPGMTFTIEPMVNAGKKEIRTMKDGWTVKTKDRSLSAQYEHTIVVTDNGCEILTLRKDDTIPAIISHDE
Turning to B3, the “Catalytic activity, % activity” value in data set [1] is on record as “do not reduce catalytic activity”.

B4: C70S: E. coli MetAP mutation in the putative substrate-binding pocket (protein, UniProt P0AE18 2-264, looked up, variant C70S)
Methionine aminopeptidase: AISIKTPEDIEKMRVAGRLAAEVLEMIEPYVKPGVSTGELDRICNDYIVNEQHAVSACLGYHGYPKSVSISINEVVCHGIPDDAKLLKDGDIVNIDVTVIKDGFHGDTSKMFIVGKPTIMGERLCRITQESLYLALRMVKPGINLREIGAAIQKFVEAEGFSVVREYCGHGIGRGFHEEPQVLHYDSRETNVVLKPGMTFTIEPMVNAGKKEIRTMKDGWTVKTKDRSLSAQYEHTIVVTDNGCEILTLRKDDTIPAIISHDE
Regarding B4, the “Catalytic activity, % activity” value in data set [1] is listed as 54%.

B5: F177L: E. coli MetAP mutation in the putative substrate-binding pocket (protein, UniProt P0AE18 2-264, looked up, variant F177L)
Methionine aminopeptidase: AISIKTPEDIEKMRVAGRLAAEVLEMIEPYVKPGVSTGELDRICNDYIVNEQHAVSACLGYHGYPKSVCISINEVVCHGIPDDAKLLKDGDIVNIDVTVIKDGFHGDTSKMFIVGKPTIMGERLCRITQESLYLALRMVKPGINLREIGAAIQKFVEAEGFSVVREYCGHGIGRGLHEEPQVLHYDSRETNVVLKPGMTFTIEPMVNAGKKEIRTMKDGWTVKTKDRSLSAQYEHTIVVTDNGCEILTLRKDDTIPAIISHDE
With B5, the “Catalytic activity, % activity” value in data set [1] was “do not reduce catalytic activity”.

B6: MetAP-YMQ: wild type E. coli Met aminopeptidase (SEQ ID NO:1) (protein, listed as Escherichia coli)
chain: MAISIKTPEDIEKMRVAGRLAAEVLEMIEPYVKPGVSTGELDRICNDYIVNEQHAVSACLGYHGYPKSVCISINEVVCHGIPDDAKLLKDGDIVNIDVTVIKDGFHGDTSKMFIVGKPTIMGERLCRITQESLYLALRMVKPGINLREIGAAIQKFVEAEGFSVVREYCGHGIGRGFHEEPQVLHYDSRETNVVLKPGMTFTIEPMVNAGKKEIRTMKDGWTVKTKDRSLSAQYEHTIVVTDNGCEILTLRKDDTIPAIISHDE
As for B6, the “Catalytic activity (%): efficiency of Met removal by wild type MetAP” value (“Catalytic activity (%): efficiency” below) in data set [2] (substrate MAD-Onc) was 100%; in data set [2] (substrate MDD-Onc), approximately 20%; in data set [2] (substrate MED-Onc), 0%; in data set [2] (substrate MFD-Onc) it was 0%; in data set [2] (substrate MGD-Onc) it was 100^c %; in data set [2] (substrate MHD-Onc) it was 0%. Besides, the “Catalytic activity (%): efficiency” value in data set [2] (substrate MID-Onc) is listed as approximately 20%; in data set [2] (substrate MKD-Onc) it was 0%; in data set [2] (substrate MLD-Onc), approximately 20%; in data set [2] (substrate MMD-Onc) it was 0%; in data set [2] (substrate MND-Onc), approximately 20%; in data set [2] (substrate MPD-Onc) it was 80–90%. The “Catalytic activity (%): efficiency” value is 0% in data set [2] (substrate MQD-Onc); 0% in data set [2] (substrate MRD-Onc); 80–90% in data set [2] (substrate MSD-Onc); 80–90% in data set [2] (substrate MTD-Onc); 80–90% in data set [2] (substrate MVD-Onc); 0% in data set [2] (substrate MWD-Onc). The “Catalytic activity (%): efficiency” value in data set [2] (substrate MWD-Onc, listed as wild type MetAP) was “inactive”; in data set [2] (substrate MYD-Onc), 0%; in data set [2] (substrate MYD-Onc, listed as wild type MetAP) it was “inactive”. Also, the “Catalytic activity (%): percent of penultimate residue removed” value in data set [3] (substrate MAA-Onc) is listed as 77%; in data set [3] (setting [6]), “removed”; in data set [3] (substrate MAG-Onc), 63%; in data set [4], “removed”. For the same molecule, the “Catalytic activity (%): removal of N-terminal Met” value is reported as 85% in data set [3] (substrate MAA-Onc); “removed” in data set [3] (setting [6]); 80% in data set [3] (substrate MAG-Onc); “failed altogether” in data set [3] (substrate MQD-Onc, listed as wild type MetAP); “no activity” in data set [3] (substrate MQD-Onc, listed as wild type enzyme); “removed” in data set [4]. For the same molecule, the “In vitro catalytic activity” value in data set [5] (oligopeptides ranging from tetra- to dodecapeptides with Ala at the penultimate site) is on record as “high catalytic activity”. In addition, the “Specific activity (unit/mg)” value in data set [5] (substrate MADY (SEQ ID NO:7)) came to 138 ± 8 unit/mg; in data set [5] (substrate MADYLT (SEQ ID NO:8)) it was 138 ± 6 unit/mg; in data set [5] (substrate MQDYLT (SEQ ID NO:9)) it was 0.43 ± 0.01 unit/mg; in data set [5] (substrate […] (SEQ ID NO:5)) it was 85 ± 13 unit/mg; in data set [5] (substrate […] (SEQ ID NO:6)), 0.62 ± 0.08 unit/mg.
